Measured values from PMC9016351.

Experiments:
GB‐DRP1 = assay: ddFP assay in cells (confocal microscopy); settings: U2OS BAX/BAK DKO cells, 3 h after apoptosis induction; n = 3 independent experiments (n = 100 cells each); parent: est. 21; read off a plot
RA‐BAX = RA‐BAX (UniProt Q07812); assay: ddFP assay in cells (confocal microscopy); settings: U2OS BAX/BAK DKO cells, 3 h after apoptosis induction; n = 3 independent experiments (n = 100 cells each); parent: est. 28; read off a plot
UniProt Q07812, sequence (Q07812 whole entry): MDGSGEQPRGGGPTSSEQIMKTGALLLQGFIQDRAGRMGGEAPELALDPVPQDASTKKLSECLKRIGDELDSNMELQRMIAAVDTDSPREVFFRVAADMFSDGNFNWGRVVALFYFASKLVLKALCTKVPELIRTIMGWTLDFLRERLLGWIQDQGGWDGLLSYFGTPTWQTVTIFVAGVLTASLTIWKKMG

Row | Substance | response (GB‐DRP1) [%] | response (RA‐BAX) [%]
1 | GB‐DRP1 R376E |  | 34
2 | RA‐BAX (from UniProt Q07812) R134E | 19 | 
3 | RA‐BAX (from UniProt Q07812) K21E | 31 | 
4 | RA‐BAX (from UniProt Q07812) K21E; R134E | 26 | 
5 | GB‐DRP1 K557R; K560R; K569R; K571R |  | 35
6 | RA‐BAX (from UniProt Q07812) K57E | 22 | 

Now from value to substance:

Row | response (GB‐DRP1) [%] | response (RA‐BAX) [%] | Substance
7 | 21 |  | RA‐BAX (from UniProt Q07812) K58E
8 | 38 |  | RA‐BAX (from UniProt Q07812) L59C
9 |  | 24 | GB‐DRP1 K38A
10 |  | 33 | GB‐DRP1 K642E
11 |  | 27 | GB‐DRP1 D221A
12 | 15 |  | RA‐BAX (from UniProt Q07812) G67R
13 | 7.5 |  | RA‐BAX (from UniProt Q07812) S184V
14 | 15 |  | RA‐BAX (from UniProt Q07812) G40E
15 | 3 |  | RA‐BAX (from UniProt Q07812) G67R; S184V
16 | 0 |  | RA‐BAX (from UniProt Q07812) L63E
